Where a chain is given by its changes, count along the chain named. In names and notes the source's numbering stands.
B1: full-length LILRB2 Y96A/G392D on 293T cells (receptor)
chain: QTGTIPKPTLWAEPDSVITQGSPVTLSCQGSLEAQEYRLYREKKSASWITRIRPELVKNGQFHIPSITWEHTGRAGCQYYSRARWSELSDPLVLVMTGAYPKPTLSAQPSPVVTSGGRVTLQCESQVAFGGFILCKEGEEEHPQCLNSQPHARGSSRAIFSVGPVSPNRRWSHRCYGYDLNSPYVWSSPSDLLELLVPGVSKKPSLSVQPGPVVAPGESLTLQCVSDVGYDRFVLYKEGERDLRQLPGRQPQAGLSQANFTLGPVSRSYGGQYRCYGAHNLSSECSAPSDPLDILITGQIRGTPFISVQPGPTVASGENVTLLCQSWRQFHTFLLTKAGAADAPLRLRSIHEYPKYQAEFPMSPVTSAHADTYRCYGSLNSDPYLLSHPSEPLELVVSGPSMGSSPPPTGPISTPGPEDQPLTPTGSDPQSGLGRHLGVVIGILVAVVLLLLLLLLLFLILRHRRQGKHWTSTQRKADFQHPAGAVGPEPTDRGLQWRSSPAADAQEENLYAAVKDTQPEDGVEMDTRAAASEAPQDVTYAQLHSLTLRRKATEPPPSQEREPPAEPSIYATLAIH
notes: also called Y96A combined with G392D
B2: full-length LILRB2 Y96A/Y394A on 293T cells (receptor)
chain: B1 chain with D371G, Y373A
notes: also called Y96A combined with Y394A
B3: Angptl5-FLAG, secreted (ligand)
chain: NCVHHSTDSSVVNIVEDGSNAKDESKSNDTVCKEDCEESCDVKTKITREEKHFMCRNLQNSIVSYTRSTKKLLRNMMDEQQASLDYLSNQVNELMNRVLLLTTEVFRKQLDPFPHRPVQSHGLDCTDIKDTIGSVTKTPSGLYIIHPEGSSYPFEVMCDMDYRGGGWTVIQKRIDGIIDFQRLWCDYLDGFGDLLGEFWLGLKKIFYIVNQKNTSFMLYVALESEDDTLAYASYDNFWLEDETRFFKMHLGRYSGNAGDAFRGLKKEDNQNAMPFSTSDVDNDGCRPACLVNGQSVKSCSHLHNKTGWWFNECGLANLNGIHHFSGKLLATGIQWGTWTKNNSPVKIKSVSMKIRRMYNPYFK
notes: read as Angptl5; not shown: FLAG tag at the C terminus
B4: LILRB2 Ig4 domain expressed on 293T cells (receptor)
chain: IRGTPFISVQPGPTVASGENVTLLCQSWRQFHTFLLTKAGAADAPLRLRSIHEYPKYQAEFPMSPVTSAHAGTYRCYGSLNSDPYLLSHPSEPLELVVSGPSMGSSPPPTGPISTPGPEDQPLTPTGSDPQSGLGRHL
notes: The range is stated for the chimeric reporter constructs; also called 4th Ig domain
B5: fibrinogen-like domain (FBN) of Angptl2, FLAG-tagged (ligand)
chain: DKPSGPWRDCLQALEDGHDTSSIYLVKPENTNRLMQVWCDQRHDPGGWTVIQRRLDGSVNFFRNWETYKQGFGNIDGEYWLGLENIYWLTNQGNYKLLVTMEDWSGRKVFAEYASFRLEPESEYYKLRLGRYHGNAGDSFTWHNGKQFTTLDRDHDVYTGNCAHYQKGGWWYNACAHSNLNGVWYRGGHYRSRYQDGVYWAEFRGGSYSLKKVVMMIRPNPNTFH
notes: the whole Angptl2 entry is named; Migrates as a 37 kD monomer; also called FBN domain; fibrinogen domain; not shown: FLAG tag
B6: Angptl2-FLAG, full-length human Angptl2 secreted from transfected 293T cells (ligand)
chain: QEDGFEGTEEGSPREFIYLNRYKRAGESQDKCTYTFIVPQQRVTGAICVNSKEPEVLLENRVHKQELELLNNELLKQKRQIETLQQLVEVDGGIVSEVKLLRKESRNMNSRVTQLYMQLLHEIIRKRDNALELSQLENRILNQTADMLQLASKYKDLEHKYQHLATLAHNQSEIIAQLEEHCQRVPSARPVPQPPPAAPPRVYQPPTYNRIINQISTNEIQSDQNLKVLPPPLPTMPTLTSLPSSTDKPSGPWRDCLQALEDGHDTSSIYLVKPENTNRLMQVWCDQRHDPGGWTVIQRRLDGSVNFFRNWETYKQGFGNIDGEYWLGLENIYWLTNQGNYKLLVTMEDWSGRKVFAEYASFRLEPESEYYKLRLGRYHGNAGDSFTWHNGKQFTTLDRDHDVYTGNCAHYQKGGWWYNACAHSNLNGVWYRGGHYRSRYQDGVYWAEFRGGSYSLKKVVMMIRPNPNTFH
notes: Runs partly as a high molecular weight (>250 kD) multimer; also called full-length Angptl2; FLAG-tagged Angptl2; not shown: FLAG tag at the C terminus

Columns and labels:
[1] = target: B6; assay: flow cytometry, Angptl2 on 293T cells expressing the mutant
Procedure: (§1) Flow cytometry. […] Cells were harvested at 48 h for analysis. […] Anti-LILRB2-PE was used as indicated. Cells were analyzed using either a FACSCalibur or FACSAria instrument (Becton Dickinson).

[2] = target: T1, human LILRB2, wild-type full-length, on cells (human, UniProt Q8N423 22-597); assay: flow cytometry, LILRB2 on 293T cells
T1 construct: the assay field says which; also called WT LILRB2; full-length LILRB2

[3] = target: B6; assay: flow cytometry, Angptl2 on 293T cells expressing the domain
Procedure: as §1
LILRB2 contains four extracellular immunoglobulin (Ig)-like domains. Takai et al., J Biomed Biotechnol. 2011; 2011:275302. […] To test this hypothesis, a number of domain and site-specific mutations of LILRB2 were generated for the flow cytometry-based cell surface ligand binding assay and chimeric reporter assay.

[4] = target: T1, human LILRB2, wild-type full-length, on …; assay: flow cytometry, human cord blood mononuclear cells, anti-FLAG-APC and anti-human LILRB2-PE
Procedure: as §1

[5] = target: T2, full-length LILRB2 R95E on 293T cells (human, UniProt Q8N423 22-597); assay: flow cytometry, Angptl2 on 293T cells expressing mutant LILRB2
T2 construct: also called single mutation in R95
Procedure: as §1

[6] = target: T3, full-length LILRB2 G94D on 293T cells (human, UniProt Q8N423 22-597); assay: as above
T3 construct: also called single mutation in G94
Procedure: as §1

[7] = target: T4, full-length LILRB2 Y96A on 293T cells (human, UniProt Q8N423 22-597); assay: as above
T4 construct: also called single mutation in Y96
Procedure: as §1

[8] = target: T5, full-length LILRB2 with mutations in AA 92-100 (Mut-8 aa) (human); assay: as above
T5 construct: also called the full-length LILRB2 with the same mutation
Procedure: as §1

Binder: B1
- binding result [1]: no binding

Binder: B2
- binding result [1]: no binding

Binder: B3
- binding result [2]: binds

Binder: B4
- binding result [3]: no binding

Binder: B5
- binding result [4]: no binding

Binder: B6
- reduction of Angptl2 binding [5]: 50%
- reduction of Angptl2 binding [6]: 50%
- reduction of Angptl2 binding [7]: 50%
- decrease of Angptl2 binding relative to the wild-type protein [8]: > 50%
